Results from the supplement of paper PMC9112550, “Optimization of the antimicrobial peptide Bac7 by deep mutational scanning” (BMC Biology, 2022).

Test system: Escherichia coli TOP10
Test: shrunken log2 fold change of peptide-encoding DNA abundance (4.5 h post-induction vs induction); higher = less antimicrobial activity (less host growth inhibition)
Settings: time post-induction: 4.5 h; library: site-saturation at positions 5, 18, 19, 20
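Note: peptides expressed intracellularly from a pBAD plasmid library in pooled LB shake-flask culture, induced with 0.3% L-arabinose, DNA abundance read by NGS, three biological replicates, DESeq2 with apeglm shrinkage.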

Sequence	shrunken log2 fold change
RRIRHRPPRLPRPRPRPVALPRP	-0.112
RRIRERPPRLPRPRPRPVERPRP	-0.00844
RRIRRRPPRLPRPRPRPANLPRP	0.0328
RRIRRRPPRLPRPRPRPPSGPRP	0.682
RRIRKRPPRLPRPRPRPCIIPRP	-0.108
RRIRLRPPRLPRPRPRPDPEPRP	0.0928
RRIRQRPPRLPRPRPRPYTWPRP	-0.51
RRIRGRPPRLPRPRPRPLYAPRP	0.64
RRIRRRPPRLPRPRPRPPQYPRP	1.12
RRIRPRPPRLPRPRPRPMDKPRP	-0.0612
RRIRMRPPRLPRPRPRPECDPRP	2.82
RRIRLRPPRLPRPRPRPLTDPRP	0.133
RRIRLRPPRLPRPRPRPSGYPRP	-0.152
RRIRARPPRLPRPRPRPTNYPRP	-0.137
RRIRRRPPRLPRPRPRPTYHPRP	0.648
RRIRGRPPRLPRPRPRPAPPPRP	1.07
RRIRARPPRLPRPRPRPDIKPRP	-0.026
RRIRSRPPRLPRPRPRPRLTPRP	0.0483
RRIRMRPPRLPRPRPRPKIRPRP	-0.0101
RRIRPRPPRLPRPRPRPMVTPRP	-0.0789
RRIRFRPPRLPRPRPRPECGPRP	0.175
RRIRIRPPRLPRPRPRPTVQPRP	-0.146

Sequence	shrunken log2 fold change
RRIRRRPPRLPRPRPRPVNGPRP	0.0578
RRIRGRPPRLPRPRPRPEPAPRP	1.69
RRIRERPPRLPRPRPRPNKAPRP	0.12
RRIRLRPPRLPRPRPRPSNVPRP	-0.288
RRIRGRPPRLPRPRPRPQSAPRP	0.629
RRIRFRPPRLPRPRPRPFWSPRP	-0.0458
RRIRYRPPRLPRPRPRPMAIPRP	-0.0433
RRIRARPPRLPRPRPRPVFTPRP	-0.0343
RRIRQRPPRLPRPRPRPNKNPRP	-0.335
RRIRRRPPRLPRPRPRPFKSPRP	-0.336
RRIRHRPPRLPRPRPRPRDYPRP	0.0554
RRIRERPPRLPRPRPRPWIHPRP	0.105
RRIRSRPPRLPRPRPRPCLKPRP	0.0091
RRIRHRPPRLPRPRPRPAGHPRP	-0.0991
RRIRERPPRLPRPRPRPKRYPRP	-0.051
RRIRRRPPRLPRPRPRPMEDPRP	0.0525
RRIRNRPPRLPRPRPRPEAPPRP	3.17
RRIRYRPPRLPRPRPRPEVGPRP	0.0159
RRIRARPPRLPRPRPRPAGRPRP	0.723
RRIRERPPRLPRPRPRPSTMPRP	-0.925
RRIRCRPPRLPRPRPRPCLYPRP	-0.117
RRIRDRPPRLPRPRPRPLPCPRP	0.0544

Sequence	shrunken log2 fold change
RRIRYRPPRLPRPRPRPQLHPRP	-0.395
RRIRYRPPRLPRPRPRPAVYPRP	-0.0166
RRIRFRPPRLPRPRPRPRLKPRP	0.0563
RRIRFRPPRLPRPRPRPAEHPRP	0.26
RRIRRRPPRLPRPRPRPGTGPRP	0.21
RRIRGRPPRLPRPRPRPPQYPRP	0.38
RRIRQRPPRLPRPRPRPCNCPRP	-0.0201
RRIRPRPPRLPRPRPRPAWNPRP	0.396
RRIRHRPPRLPRPRPRPISQPRP	-0.0145
RRIRYRPPRLPRPRPRPCIDPRP	-0.00448
RRIRSRPPRLPRPRPRPERWPRP	1.14
RRIRKRPPRLPRPRPRPPPVPRP	0.751
RRIRNRPPRLPRPRPRPQTDPRP	-0.19
RRIRNRPPRLPRPRPRPEFNPRP	-0.0322
RRIRMRPPRLPRPRPRPNQAPRP	-0.00973
RRIRNRPPRLPRPRPRPVSGPRP	0.172
RRIRWRPPRLPRPRPRPWFFPRP	-0.0638
RRIRRRPPRLPRPRPRPPQVPRP	1.33
RRIRDRPPRLPRPRPRPYTIPRP	-0.0747
RRIRERPPRLPRPRPRPLQVPRP	-0.384
RRIRIRPPRLPRPRPRPFFLPRP	-0.406
RRIRWRPPRLPRPRPRPVPQPRP	0.282

Sequence	shrunken log2 fold change
RRIRWRPPRLPRPRPRPKVNPRP	0.175
RRIRNRPPRLPRPRPRPYEHPRP	-0.151
RRIRVRPPRLPRPRPRPRPQPRP	0.365
RRIRKRPPRLPRPRPRPKGWPRP	0.61
RRIRDRPPRLPRPRPRPLVYPRP	-0.259
RRIRGRPPRLPRPRPRPTHPPRP	0.868
RRIRKRPPRLPRPRPRPLNFPRP	0.103
RRIRRRPPRLPRPRPRPFKKPRP	-0.0451
RRIRLRPPRLPRPRPRPHIHPRP	-0.29
RRIRQRPPRLPRPRPRPLAGPRP	0.166
RRIRVRPPRLPRPRPRPGQMPRP	-0.0386
RRIRRRPPRLPRPRPRPIIQPRP	-0.342
RRIRIRPPRLPRPRPRPLRHPRP	-0.172
RRIRHRPPRLPRPRPRPSWAPRP	0.19
RRIRYRPPRLPRPRPRPIQMPRP	-0.0163
RRIRHRPPRLPRPRPRPTKQPRP	-0.0343
RRIRYRPPRLPRPRPRPRTRPRP	-0.0272
RRIRDRPPRLPRPRPRPKGCPRP	0.0262
RRIRMRPPRLPRPRPRPYVYPRP	-0.175
RRIRNRPPRLPRPRPRPPEHPRP	0.266
RRIRGRPPRLPRPRPRPNMGPRP	0.269
RRIRVRPPRLPRPRPRPMLPPRP	0.0351

Sequence	shrunken log2 fold change
RRIRDRPPRLPRPRPRPLLAPRP	1.2
RRIRERPPRLPRPRPRPDEDPRP	-0.209
RRIRIRPPRLPRPRPRPNIIPRP	-0.719
RRIRVRPPRLPRPRPRPRDTPRP	-0.0483
RRIRVRPPRLPRPRPRPHRHPRP	-0.357
RRIRYRPPRLPRPRPRPGVFPRP	-0.0987
RRIRDRPPRLPRPRPRPHYWPRP	-0.282
RRIRYRPPRLPRPRPRPICHPRP	-0.305
RRIRRRPPRLPRPRPRPDPLPRP	0.119
RRIRNRPPRLPRPRPRPLYWPRP	-0.437
RRIRQRPPRLPRPRPRPYLEPRP	-0.332
RRIRCRPPRLPRPRPRPWKEPRP	0.124
RRIRWRPPRLPRPRPRPWPVPRP	0.502
RRIRWRPPRLPRPRPRPHGKPRP	0.00196
RRIRRRPPRLPRPRPRPHWSPRP	-0.0676
RRIRTRPPRLPRPRPRPANMPRP	-0.291
RRIRDRPPRLPRPRPRPDHKPRP	-0.119
RRIRMRPPRLPRPRPRPQTFPRP	-0.0186
RRIRCRPPRLPRPRPRPEMGPRP	0.0517
RRIRERPPRLPRPRPRPCTSPRP	-0.0275
RRIRPRPPRLPRPRPRPYIEPRP	-0.322
